Source: US20140163217A1, “PROCESS FOR THE ESTERIFICATION OF HYALURONIC ACID WITH HYDROPHOBIC ORGANIC COMPOUNDS” (UNIVERSITE DE GENEVE, priority 2010, published 2014)

Key:
Format in all cases: physicochemical
[1] = Solubility of the product in water; conditions: product of small scale reaction (0.5 g), 2% diacerhein functionalization
Protocol: 0.044 g Diacerhein were suspended into 20 mL dry THF, followed by addition of 0.022 g CDI dissolved in 2 mL THF. The reaction mixture was stirred for 1 hour at room temperature until a clear solution was obtained. 0.5 g cryo-micronized HA powder were added and the suspension stirred at 70° C. for 24 hours. The reaction mixture was then filtered through a G4-fritte and washed with 150 mL dry THF. The non-soluble remaining HA product was slightly yellowish. By redissolving the product in water small amounts of remaining dispersed diacerhein could be removed by centrifugation to yield a visually clear and transparent aqueous solution.
The obtained product was analyzed by H^1-NMR-, HPLC-, UV- and LC-MS/MS-analyses, and the following results were obtained. The reaction resulted a 100% yield of HA-polymer, close to its original molecular weight with a 2% diacerhein-fimctionalization. No significant degradation of HA in the final product could be observed. […] For further qualitative characterization the HA-diacerhein product was enzymatically hydrolysed, which lead to HA-fragments (oligomers) with and without diacerhein, which could be analysed by HPLC analysis. Furthermore HA-fragments with and without diacerhein attached were identified by LC-MS/MS.

[2] = pH determination of the 1% solution; conditions: 1% (weight/weight) solution in MilliQ water; Metrohm 691 pH-Meter, Biotrode glass electrode
Protocol: pH of the above described 1% solution was determined to be 5.5 (Metrohm 691 ph-Meter operated with a Biotrode glass electrode; according to specifications received for the initial hyaluronic acid provided by TRB, pH of a 0.5% solution should be between 5.0 and 8.5).

[3] = Solution appearance of a 1% (weight/weight) solution in MilliQ water; conditions: approx. 10 mg freeze-dried compound in 1 ml MilliQ water, after storage or centrifugation at 14'000 rpm for 10 min
Protocol: A 1% (weight/weight) solution was obtained by dissolving approximately 10 mg of freeze-dried compound into 1 ml of pure MilliQ water.

Row | Substance | solubility in water [1] | pH of 1% solution [2] | solution appearance / precipitation [3]
1 | HA-Diacerhein [Example 1] | soluble in water |  | 
2 | HA-Diacerhein [Example 2] |  | 5.5 | no precipitation occurred
